In US20160108097A1 (UNITED STATES OF AMERICA AS REPRESENTED BY THE SECRETARY …, published 2016):

Experiments:
Env of HIV-1RF virus = Env of HIV-1RF virus (HIV-1 RF); experiment: cell-based or functional assay
[1] = molecular target: HIV envelope glycoprotein gp120 (HIV); experiment: ITC, 30 °C, lectin titrated into gp120
[2] = molecular target: HIV-1 subtype B envelope QH0692.42 (HIV-1 subtype B); experiment: cell-based or functional assay
[3] = molecular target: HIV-1 subtype A envelope Q23.17 (HIV-1 subtype A); experiment: cell-based or functional assay
[4] = molecular target: HIV-1 subtype C envelope COT6.15 (HIV-1 subtype C); experiment: cell-based or functional assay
[5] = molecular target: HIV-1 subtype B envelope JR-FL (HIV-1 subtype B); experiment: cell-based or functional assay
[6] = molecular target: HIV-1 subtype C envelope CAP206.8 (HIV-1 subtype C); experiment: cell-based or functional assay
[7] = molecular target: HIV-1 subtype C envelope Du179.14 (HIV-1 subtype C); experiment: cell-based or functional assay
[8] = molecular target: HIV-1 subtype B envelope CAAN5342.A2 (HIV-1 subtype B); experiment: cell-based or functional assay
[9] = molecular target: HIV-1 subtype C envelope Du156.12 (HIV-1 subtype C); experiment: cell-based or functional assay
[10] = molecular target: HIV-1 subtype B envelope PVO.4 (HIV-1 subtype B); experiment: cell-based or functional assay
[11] = molecular target: HIV-1 subtype C envelope DU151.2 (HIV-1 subtype C); experiment: cell-based or functional assay
[12] = molecular target: HIV-1 subtype A envelope Q168.a2 (HIV-1 subtype A); experiment: cell-based or functional assay
[13] = molecular target: GRFT-resistant envelope Du156R18 (R); experiment: cell-based or functional assay
[14] = molecular target: GRFT-resistant envelope Du179 GRFT c17 (R); experiment: cell-based or functional assay
[15] = molecular target: HIV envelope glycoprotein gp120 (HIV); experiment: ITC
[16] = molecular target: HIV envelope glycoprotein gp120 (HIV); experiment: ITC, 30 °C, tandemer (180 µM) titrated into gp120 (2.5 µM)

Row | Binder | Anti-HIV EC50 (XTT cytopathicity assay, HIV-1RF, CEM-SS cells) (Env of HIV-1RF virus) | IC50 (pseudovirus neutralization, JC53bl-13 cells) [2] | IC50 (pseudovirus neutralization, JC53bl-13 cells) [3] | IC50 (pseudovirus neutralization, JC53bl-13 cells) [4] | IC50 (pseudovirus neutralization, JC53bl-13 cells) [5] | IC50 (pseudovirus neutralization, JC53bl-13 cells) [6] | IC50 (pseudovirus neutralization, JC53bl-13 cells) [7] | IC50 (pseudovirus neutralization, JC53bl-13 cells) [8] | IC50 (pseudovirus neutralization, JC53bl-13 cells) [9] | IC50 (pseudovirus neutralization, JC53bl-13 cells) [10] | IC50 (pseudovirus neutralization, JC53bl-13 cells) [11] | IC50 (pseudovirus neutralization, JC53bl-13 cells) [12] | IC50 (pseudovirus neutralization, JC53bl-13 cells) [13] | fold reduction in activity between the WT (Du156.12) and R viruses [13] | IC50 (pseudovirus neutralization, JC53bl-13 cells) [14] | fold reduction in activity between the WT (Du179.14) and R viruses [14] | enthalpy/entropy compensation (ΔH/ΔS) ratio [15] | Kd [16] | TΔS [16] | ΔG [16] | also measured
1 | monomeric griffithsin mGRFT (1GS-S, PDB ID 3LL2) (designed binder, also called IGS-S; GRFT monomer) SSTHRKFGGSGGSPFSGSGLSSIAVRSGSYLDAIIIDGVHHGGSGGNLSPTFTFGSGEYISNMTIRSGDYIDNISFETNMGRRFGPYGGSGGSANTLSNVKVIQINGSAGDYLDSLDIYYEQY | 119 nM |  |  |  |  |  |  |  |  |  |  |  |  |  |  |  |  |  |  |  | Kd [1]: 112 nM; TΔS [1]: -26 kcal/mol; ΔG [1]: -9.47 kcal/mol; ΔH [1]: -35.5 kcal/mol
2 | 4mGRFT (4mG) (mGRFT-GlyThrGly-mGRFT-GlyThrGly-mGRFT-GlyThrGly-mGRFT) (designed binder) SSTHRKFGGSGGSPFSGSGLSSIAVRSGSYLDAIIIDGVHHGGSGGNLSPTFTFGSGEYISNMTIRSGDYIDNISFETNMGRRFGPYGGSGGSANTLSNVKVIQINGSAGDYLDSLDIYYEQYGTGSSTHRKFGGSGGSPFSGSGLSSIAVRSGSYLDAIIIDGVHHGGSGGNLSPTFTFGSGEYISNMTIRSGDYIDNISFETNMGRRFGPYGGSGGSANTLSNVKVIQINGSAGDYLDSLDIYYEQYGTGSSTHRKFGGSGGSPFSGSGLSSIAVRSGSYLDAIIIDGVHHGGSGGNLSPTFTFGSGEYISNMTIRSGDYIDNISFETNMGRRFGPYGGSGGSANTLSNVKVIQINGSAGDYLDSLDIYYEQYGTGSSTHRKFGGSGGSPFSGSGLSSIAVRSGSYLDAIIIDGVHHGGSGGNLSPTFTFGSGEYISNMTIRSGDYIDNISFETNMGRRFGPYGGSGGSANTLSNVKVIQINGSAGDYLDSLDIYYEQY | 0.0012 nM | 0.17 nM | 0.276 nM | 0.273 nM | 0.287 nM | 0.164 nM | 0.0934 nM | 0.232 nM | 0.0887 nM | 0.185 nM | 0.3 nM | 0.273 nM | 0.688 nM | 8 fold | 2.08 nM | 22 fold |  |  |  |  | 
3 | 2mGRFT^long (2mG3) (mGRFT-GlyThrGlyGlyThrGlyGlyThrGly-mGRFT) (designed binder, also called 2mGRFT3; 2mrG3) SSTHRKFGGSGGSPFSGSGLSSIAVRSGSYLDAIIIDGVHHGGSGGNLSPTFTFGSGEYISNMTIRSGDYIDNISFETNMGRRFGPYGGSGGSANTLSNVKVIQINGSAGDYLDSLDIYYEQYGTGGTGGTGSSTHRKFGGSGGSPFSGSGLSSIAVRSGSYLDAIIIDGVHHGGSGGNLSPTFTFGSGEYISNMTIRSGDYIDNISFETNMGRRFGPYGGSGGSANTLSNVKVIQINGSAGDYLDSLDIYYEQY | 0.0026 nM | 0.513 nM | 7.16 nM | 2.52 nM | 5.77 nM | 0.696 nM | 0.144 nM | 16.9 nM | 0.0616 nM | 0.558 nM | 1.7 nM | 5.28 nM | 26 nM | 422 fold | 34.4 nM | 239 fold | 1.33 | 3 nM | -35.4 kcal/mol | -11.8 kcal/mol | ΔH [16]: -47.2 kcal/mol
4 | 3mGRFT (3mG) (mGRFT-GlyThrGly-mGRFT-GlyThrGly-mGRFT) (designed binder) SSTHRKFGGSGGSPFSGSGLSSIAVRSGSYLDAIIIDGVHHGGSGGNLSPTFTFGSGEYISNMTIRSGDYIDNISFETNMGRRFGPYGGSGGSANTLSNVKVIQINGSAGDYLDSLDIYYEQYGTGSSTHRKFGGSGGSPFSGSGLSSIAVRSGSYLDAIIIDGVHHGGSGGNLSPTFTFGSGEYISNMTIRSGDYIDNISFETNMGRRFGPYGGSGGSANTLSNVKVIQINGSAGDYLDSLDIYYEQYGTGSSTHRKFGGSGGSPFSGSGLSSIAVRSGSYLDAIIIDGVHHGGSGGNLSPTFTFGSGEYISNMTIRSGDYIDNISFETNMGRRFGPYGGSGGSANTLSNVKVIQINGSAGDYLDSLDIYYEQY | 0.001 nM | 0.223 nM | 0.462 nM | 0.412 nM | 0.325 nM | 0.181 nM | 0.124 nM | 0.326 nM | 0.0794 nM | 0.27 nM | 0.308 nM | 0.331 nM | 1.11 nM | 14 fold | 3.86 nM | 31 fold | 1.19 | 3 nM | -62.7 kcal/mol | -11.8 kcal/mol | ΔH [16]: -74.4 kcal/mol
5 | 2mGRFT (2mG) (mGRFT-GlyThrGly-mGRFT) (designed binder) SSTHRKFGGSGGSPFSGSGLSSIAVRSGSYLDAIIIDGVHHGGSGGNLSPTFTFGSGEYISNMTIRSGDYIDNISFETNMGRRFGPYGGSGGSANTLSNVKVIQINGSAGDYLDSLDIYYEQYGTGSSTHRKFGGSGGSPFSGSGLSSIAVRSGSYLDAIIIDGVHHGGSGGNLSPTFTFGSGEYISNMTIRSGDYIDNISFETNMGRRFGPYGGSGGSANTLSNVKVIQINGSAGDYLDSLDIYYEQY | 0.0027 nM | 0.202 nM | 7.26 nM | 1.46 nM | 2.09 nM | 0.178 nM | 0.158 nM | 5.27 nM | 0.0182 nM | 0.301 nM | 0.694 nM | 1.55 nM | 27.1 nM | 1490 fold | 36 nM | 228 fold | 1.16 | 5 nM | -59.9 kcal/mol | -11.6 kcal/mol | ΔH [16]: -69.6 kcal/mol
